Data reported in patent publication US20240025997A1 (NGM BIOPHARMACEUTICALS, published 2024).

Assays:
soluble human ILT4-ECD [1] = target: T1, soluble human ILT4-ECD (human, UniProt Q8N423 22-460); assay: SPR (Biacore), antibody captured on Protein A chip, soluble ILT-ECD injected, 25 C, low resolution parameters
T1 construct: also called LILRB2 extracellular domain
Procedure: (§1) The binding affinities of anti-ILT2 and anti-ILT4 antibodies were measured using a Biacore system (GE Healthcare LifeSciences). Equilibrium dissociation constant (KD) measurements were carried out with purified antibodies to evaluate their binding to human ILT2, human ILT4, and rhesus ILT2. Briefly, purified anti-ILT2 antibody 27F9, anti-ILT4 antibodies 47C8 and 48A5, and anti-ILT2/ILT4 antibodies 47H6, 51A1, 64A12, 73C4, and 73D1 were captured on a Sensor Chip Protein A (GE HealthCare). The surface of the Biacore Sensor Chip Protein A consists of a carboxymethylated dextran matrix with a recombinant Protein A variant covalently attached. Soluble human ILT2-ECD, human ILT4-ECD, or rhesus ILT2-ECD were injected at a flow rate of 30 μL/min at 25° C. The ILT2 or ILT4 proteins were used at concentrations ranging from 1.6-200 nM in PBS-P buffer with 2 fold dilutions. Kinetic data were collected over time and fit using the simultaneous global fit equation to yield affinity constants (KD values) for each antibody.

soluble human ILT2-ECD [2] = target: T2, soluble human ILT2-ECD (human, UniProt Q8NHL6 24-461); assay: as above
T2 construct: also called LILRB1 extracellular domain
Procedure: as §1

[3] = target: T3, cynomolgus monkey ILT2 on cells (cynomolgus monkey); assay: flow cytometry, fluorescently labelled antibody on CD14+ monocytes of cyno PBMC, donor Cyno 1, geometric MFI
T3 construct: also called cyno ILT2; ILT2 on cyno CD14+ monocytes
Procedure: (§2) The binding of anti-ILT2/ILT4 antibodies to monocytes was evaluated. The binding of exemplary anti-ILT2/ILT4 antibody 73D1 and the humanized version Hz73D1.v1 to the CD14+ monocyte population of human and cyno PBMC were determined by flow cytometry analysis. Briefly, human or cyno PBMCs (from 2 donors each) were thawed, washed in media (RPMI, 10% FBS, L-glutamine, pen/strep), and resuspended in fresh media. PBMCs were stained with a cocktail of labeled antibodies to differentiate between the different cell types. 1×10⁶ cells/well were stained with fluorescently-labelled 73D1 or Hz73D1.v1 antibody and incubated on ice. The cells were washed with ice-cold reagents and immediately analyzed by flow cytometry. The geometric mean fluorescence intensity for CD14+ monocytes was calculated for each sample. […] For example, the 50% effective concentration (EC₅₀) of Hz73D1.v1 was 8.8 nM with human monocytes and 1.8 nM with cyno monocytes.

soluble human ILT4-ECD [4] = target: T1, soluble human ILT4-ECD; assay: SPR (Biacore), antibody captured on Protein A chip, soluble ILT-ECD injected (1.6-200 nM), 25 C
Procedure: as §1

soluble human ILT2-ECD [5] = target: T2, soluble human ILT2-ECD; assay: as above
Procedure: as §1

human ILT4 on cells = target: T4, human ILT4 on cells (human, UniProt Q8N423 22-597); assay: flow cytometry, fluorescently labelled antibody on immune cell subsets of PBMC / red-cell-depleted whole blood
T4 construct: also called LILRB2; human ILT4 expressed on 293T cells
Procedure: Flow cytometry analysis of blood immune cells was performed on human and cyno PBMC and whole blood. PBMC were prepared from a leukopak (Allcells Inc.) by centrifugation through ficoll, washing with PBS and freezing in cryopreservation buffer in liquid nitrogen until use. Whole blood (Allcells Inc.) was obtained fresh and red blood cells (RBC) depleted using ammonium chloride RBC lysing solution (Biolegend). PBMC or whole blood samples were stained with a fluorescently labeled antibody panel to distinguish various immune subsets (monocytes, B cells, NK cells, CD4+ and CD8+ T cells, neutrophils and eosinophils). Samples were further stained with fluorescently labeled isotype, 27F9 (ILT2 specific), 48A5 (ILT4 specific), 73D1, and Hz73D1.v1. The number of ILT2 and ILT4 molecules per cell of each immune subset was estimated by incubation with Quantum Simply Cellular microspheres followed by flow cytometry analysis.

[6] = target: T3, cynomolgus monkey ILT2 on cells; assay: flow cytometry, fluorescently labelled antibody on CD14+ monocytes of cyno PBMC, donor Cyno 2, geometric MFI
Procedure: as §2

soluble human ILT4-ECD [7] = target: T1, soluble human ILT4-ECD; assay: SPR (Biacore) as described in Example 3
Procedure: as §1
(§3) The binding affinities of the humanized antibodies to human ILT2 and human ILT4 were measured using a Biacore system as described herein. The binding affinities of antibodies Hz47H6.v2, Hz64A12, and Hz73D1.v1 are shown in Table 11 as compared with the parental antibodies.

soluble human ILT2-ECD [8] = target: T2, soluble human ILT2-ECD; assay: SPR (Biacore) as described in Example 3
Procedure: as §1, §3

soluble human ILT4-ECD [9] = target: T1, soluble human ILT4-ECD; assay: SPR (Biacore) as described in Example 3, low resolution parameters
Procedure: as §1, §3

soluble human ILT2-ECD [10] = target: T2, soluble human ILT2-ECD; assay: as above
Procedure: as §1, §3

T1 sequence (Q8N423 other isoform, or with tags, fused parts or gaps): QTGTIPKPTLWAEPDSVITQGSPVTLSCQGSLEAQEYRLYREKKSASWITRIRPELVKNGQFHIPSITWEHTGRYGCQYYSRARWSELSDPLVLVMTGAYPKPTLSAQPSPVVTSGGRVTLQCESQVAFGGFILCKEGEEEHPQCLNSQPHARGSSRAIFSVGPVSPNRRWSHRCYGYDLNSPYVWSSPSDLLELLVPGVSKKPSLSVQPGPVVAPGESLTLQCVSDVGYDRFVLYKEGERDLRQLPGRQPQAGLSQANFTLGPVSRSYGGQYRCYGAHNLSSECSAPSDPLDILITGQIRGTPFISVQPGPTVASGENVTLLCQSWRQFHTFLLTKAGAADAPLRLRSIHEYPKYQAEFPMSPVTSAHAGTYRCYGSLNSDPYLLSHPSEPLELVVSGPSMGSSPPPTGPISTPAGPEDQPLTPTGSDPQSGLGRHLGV
T2 sequence (Q8NHL6 24-461): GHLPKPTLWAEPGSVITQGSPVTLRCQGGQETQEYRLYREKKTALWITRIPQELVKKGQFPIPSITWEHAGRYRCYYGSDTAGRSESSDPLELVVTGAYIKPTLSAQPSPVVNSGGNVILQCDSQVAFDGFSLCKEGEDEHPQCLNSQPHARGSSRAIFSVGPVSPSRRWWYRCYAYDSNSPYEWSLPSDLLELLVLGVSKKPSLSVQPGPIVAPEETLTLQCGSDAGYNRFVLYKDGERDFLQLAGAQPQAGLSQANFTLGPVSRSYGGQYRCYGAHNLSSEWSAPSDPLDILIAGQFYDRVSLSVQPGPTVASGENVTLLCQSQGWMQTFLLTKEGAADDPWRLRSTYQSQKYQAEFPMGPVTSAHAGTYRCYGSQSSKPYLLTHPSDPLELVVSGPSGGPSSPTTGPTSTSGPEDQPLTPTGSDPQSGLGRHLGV
T3 sequence (chain, as listed by the source): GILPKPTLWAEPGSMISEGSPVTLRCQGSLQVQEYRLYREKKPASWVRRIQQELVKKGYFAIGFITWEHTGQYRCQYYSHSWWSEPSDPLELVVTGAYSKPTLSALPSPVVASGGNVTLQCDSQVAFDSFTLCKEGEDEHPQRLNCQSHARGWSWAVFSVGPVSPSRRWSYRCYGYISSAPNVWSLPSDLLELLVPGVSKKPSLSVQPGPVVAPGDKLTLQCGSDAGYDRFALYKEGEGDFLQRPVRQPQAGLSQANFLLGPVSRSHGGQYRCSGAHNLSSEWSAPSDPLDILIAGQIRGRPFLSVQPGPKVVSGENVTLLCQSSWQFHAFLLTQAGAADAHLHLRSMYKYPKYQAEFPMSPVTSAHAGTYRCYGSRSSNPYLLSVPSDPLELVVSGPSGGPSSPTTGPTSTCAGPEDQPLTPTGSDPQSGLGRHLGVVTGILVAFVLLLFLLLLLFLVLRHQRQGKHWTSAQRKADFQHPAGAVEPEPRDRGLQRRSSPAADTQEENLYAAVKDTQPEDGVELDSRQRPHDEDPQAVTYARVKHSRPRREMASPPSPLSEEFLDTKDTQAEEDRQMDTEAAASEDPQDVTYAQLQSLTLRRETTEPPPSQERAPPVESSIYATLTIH
T4 sequence (Q8N423 other isoform, or with tags, fused parts or gaps): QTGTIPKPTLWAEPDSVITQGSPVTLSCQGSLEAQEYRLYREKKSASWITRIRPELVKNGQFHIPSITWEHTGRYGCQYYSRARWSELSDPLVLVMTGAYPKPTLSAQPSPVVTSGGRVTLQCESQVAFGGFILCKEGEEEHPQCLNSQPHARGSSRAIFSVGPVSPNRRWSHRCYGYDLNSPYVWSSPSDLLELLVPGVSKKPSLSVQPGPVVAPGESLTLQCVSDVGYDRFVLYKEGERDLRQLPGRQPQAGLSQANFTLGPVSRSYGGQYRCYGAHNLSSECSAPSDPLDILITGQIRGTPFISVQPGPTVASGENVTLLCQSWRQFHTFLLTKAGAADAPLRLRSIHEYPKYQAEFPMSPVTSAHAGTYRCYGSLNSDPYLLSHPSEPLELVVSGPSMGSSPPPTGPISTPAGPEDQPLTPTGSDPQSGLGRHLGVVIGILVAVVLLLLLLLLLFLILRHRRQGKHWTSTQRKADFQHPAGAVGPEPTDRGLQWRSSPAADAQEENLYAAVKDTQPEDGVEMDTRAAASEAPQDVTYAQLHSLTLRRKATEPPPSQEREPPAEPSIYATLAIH

Row | Binder | Kd (soluble human ILT4-ECD [4]) [pM] | koff (soluble human ILT4-ECD [4]) [s⁻¹] | kon (soluble human ILT4-ECD [4]) [M⁻¹ s⁻¹] | Kd (soluble human ILT2-ECD [5]) [pM] | koff (soluble human ILT2-ECD [5]) [s⁻¹] | kon (soluble human ILT2-ECD [5]) [M⁻¹ s⁻¹] | Kd (soluble human ILT4-ECD [7]) [pM] | koff (soluble human ILT4-ECD [7]) [s⁻¹] | kon (soluble human ILT4-ECD [7]) [M⁻¹ s⁻¹] | Kd (soluble human ILT2-ECD [8]) [pM] | koff (soluble human ILT2-ECD [8]) [s⁻¹] | kon (soluble human ILT2-ECD [8]) [M⁻¹ s⁻¹] | further results
1 | anti-ILT2/ILT4 antibody 73C4 (antibody, V domains shown, Mouse hybridoma antibody) VH: AVQLQQSGPELVKPGASVKISCKASGYTFTDYYMNWVKQSHGKSLEWIGNVNPNNGGTSYNQKFKGKATLTVDKSSSTAYMELRSLTSEDSAVYYCARREIYFYGTIYYYAMDYWGQGTSVTVSS VL: DIVLTQSPASLAVSLGQRATISCRASESVDYYGNSFMYWYQQKPGRPPNLLIYFASNLESGVPARFSGSGSRTDFTLTIDPVEADDAATYYCQQNNEDPWTFGGGTKLEIK | – | – | – | – | – | – | – | – | – | – | – | – | Kd (soluble human ILT4-ECD [1]): < 100 pM; koff (soluble human ILT4-ECD [1]): ~1e-05 s⁻¹; kon (soluble human ILT4-ECD [1]): 97000 M⁻¹ s⁻¹; Kd (soluble human ILT2-ECD [2]): < 100 pM; koff (soluble human ILT2-ECD [2]): ~1e-05 s⁻¹; kon (soluble human ILT2-ECD [2]): 31000 M⁻¹ s⁻¹
2 | anti-ILT2/ILT4 antibody 73D1 (antibody, V domains shown, Mouse hybridoma antibody; Shares its light chain variable region with 73C4) VH: AVQLQQSGPELVKPGASVKISCKASGYTFTDYYINWVKQSHGKSLQWIGNVNPNDGGTTYNQKFKGKATLTVDKSSSTAYMELRSLTSEDSAVYYCARREIYFYGTIYYYAMDYWGQGTSVTVSS VL: DIVLTQSPASLAVSLGQRATISCRASESVDYYGNSFMYWYQQKPGRPPNLLIYFASNLESGVPARFSGSGSRTDFTLTIDPVEADDAATYYCQQNNEDPWTFGGGTKLEIK | 180 | 5.4e-05 | 300000 | 1200 | 6e-05 | 50000 | 740 | 0.0003 | 400000 | 1800 | 0.00024 | 150000 | EC50 (read off the curve) [3]: ~700 pM; binding result (human ILT4 on cells): binds; EC50 (read off the curve) [6]: ~900 pM
3 | anti-ILT2/ILT4 antibody 47H6 (antibody, V domains shown, Mouse hybridoma antibody) VH: EVQLQQSGPELVKPGASVKISCKASGYTFTDYYMNWVKQSHGKSLEWIGDFNPNNGGTTYNQKFEGKATLTVDKSSNTAYMDLRSLTSEDSAVYYCARGRFYYGSLYSFDYWGQGTTLTVSS VL: DIQMTQSPASLSASVGETVTITCRASGNIHNYLAWYQQKQGKSPHLLVYNAKTLADGVPSRFSGSGSGTQYSLKINNLQPEDFGSYYCQHFWTSITFGAGTKLDLK | 760 | 2.8e-05 | 37000 | 2100 | 8.6e-05 | 42000 | 200 | 2.1e-05 | 100000 | 200 | 2.1e-05 | 100000 | –
4 | anti-ILT2/ILT4 antibody 51A1 (antibody, V domains shown, Mouse hybridoma antibody) VH: EVQLVESGGGLVQPKGSLKLSCAASGFTFNTYAMHWVRQAPGKGLEWVARIRSKSSNYATYYADSVKDRFTISRDDSQSMLYLQMNNLKTEDTAMYYCVRDGIYYYGTMYYYAMDYWGQGTSVTVSS VL: NIVLTQSPASLAVSLGQRATISCRASESVDYYGNSFMYWYQQKPGQPPKLLIYFASNLESGVPARFSGSGSRTDFTLTIDPVEAADAASYYCQQNNEDPWTFGGGTKLEIK | 200 | 1.4e-05 | 68000 | 5800 | 0.00022 | 39000 | – | – | – | – | – | – | –
5 | anti-ILT2/ILT4 antibody 64A12 (antibody, V domains shown, Mouse hybridoma antibody) VH: EVQLVESGGGLVQPKGSLKLSCAASGFTFNTYAMHWVRQAPGKGLEWVARIRSKSSNYATYYADSVKDRFTISRDDSQSMLYLQMNNLKTEDTAMYYCVRDGIYYYDTMYYYAMDYWGQGTSVTVSS VL: NIVLTQSPASLAVSLGQRATISCRASESVDYYGNSFIYWYQQKPGQPPKLLIYFASNLESGVPARFSGSGSRTDFTLTIDPVEAADAASYYCQQNNEDPWTFGGGTKLEIK | – | – | – | – | – | – | – | – | – | – | – | – | Kd (soluble human ILT4-ECD [9]): < 100 pM; koff (soluble human ILT4-ECD [9]): ~1e-05 s⁻¹; kon (soluble human ILT4-ECD [9]): 82000 M⁻¹ s⁻¹; Kd (soluble human ILT2-ECD [10]): < 100 pM; koff (soluble human ILT2-ECD [10]): ~1e-05 s⁻¹; kon (soluble human ILT2-ECD [10]): 20000 M⁻¹ s⁻¹; Kd (soluble human ILT4-ECD [1]): < 100 pM; koff (soluble human ILT4-ECD [1]): ~1e-05 s⁻¹; kon (soluble human ILT4-ECD [1]): 82000 M⁻¹ s⁻¹; Kd (soluble human ILT2-ECD [2]): < 100 pM; koff (soluble human ILT2-ECD [2]): ~1e-05 s⁻¹; kon (soluble human ILT2-ECD [2]): 20000 M⁻¹ s⁻¹
6 | humanized anti-ILT2/ILT4 antibody Hz47H6.v2 (antibody, human IgG1, kappa, N297G, V domains shown) VH: QVQLVQSGAEVKKPGASVKVSCKASGYTFTDYYMNWVRQAPGQRLEWIGDFNPNNAGTTYNQKFEGRVTITVDKSASTAYMELSSLRSEDTAVYYCARGRFYYGSLYSFDYWGQGTLVTVSS VL: DIQMTQSPSSLSASVGDRVTITCRASGNIHNYLAWYQQKPGKAPKLLIYNAKTLADGVPSRFSGSGSGTDFTLTISSLQPEDFATYYCQHFWTSITFGPGTKVDIKR | – | – | – | – | – | – | 2000 | 0.00018 | 87000 | 4000 | 0.0009 | 230000 | –
7 | humanized anti-ILT2/ILT4 antibody Hz64A12 (antibody, human IgG1, kappa, N297G, V domains shown, Human IgG1 constant region with G at position 297, human kappa) VH: EVQLVESGGGLVQPGGSLRLSCAASGFTFNTYAMHWVRQAPGKGLEWVARIRSKSSNYATYYADSVKDRFTISRDDAKNSLYLQMNSLRAEDTAVYYCARDGIYYYDTMYYYAMDYWGQGTLVTVSS VL: NIVLTQSPDSLAVSLGERATINCRASESVDYYGNSFIYWYQQKPGQPPKLLIYFASNLESGVPDRFSGSGSGTDFTLTISSLQAEDVAVYYCQQNNEDPWTFGGGTKVEIKR | – | – | – | – | – | – | – | – | – | – | – | – | Kd (soluble human ILT4-ECD [9]): < 100 pM; koff (soluble human ILT4-ECD [9]): ~1e-05 s⁻¹; kon (soluble human ILT4-ECD [9]): 300000 M⁻¹ s⁻¹; Kd (soluble human ILT2-ECD [10]): 1600 pM; koff (soluble human ILT2-ECD [10]): 0.00014 s⁻¹; kon (soluble human ILT2-ECD [10]): 93000 M⁻¹ s⁻¹
